{"source": "patent US20250327097A1", "about": "“ORGANISMS PRODUCING LESS CROTONIC ACID” (Global Bioenergies, priority 2021, published 2025)", "data": [{"test_system": "3-methylcrotonic acid", "assay_type": "biochemical, Yersinia frederiksenii", "design": "key: “+” representing a low increase in activity; “++++” representing a high increase in activity", "values": [{"molecule": "I283T-N285P-N287T-Q290E-S322T-N388M-K394R-C430A-L432F-L434W-S436N-i447aY-dG462 (protein) MFLKSLREQINLLKRQGDLRIINRPVDSYLEAAAIIRRSTETKAPVPLMTNIKGYPGCSIVGGLAALSSNPEYPLSRVAMSLGLSTTASAQSIVQYLIDGLKKTPYLPVEIDSNSAPCKQNILRGEDASLAHFPIPQVHQHDGNRYVNTWGVFIVESPDGQWCNWSIQRVQYLNDRQMIALVFPSQHISDIWEEWVKIGKPMPYALVQGCEPIVPYIAGLPLLERNVNEAEYIGALYGKGIEVVKCETHDLRVPASSEVVIEGYFAITREGVEGPFGEFAGYTPPETSLEPILSITAISWQDDPIWPVVAEGKPVDEYHTCTGIGDAAAIQNVLLTANLPVSFVWVPLYSACHLMIVSINRHWRQTHPDLTSEQLTKKVGDVIHQTRMSIKLPRIVVLDDDVDPADTESLLWALATRIHPERKRYFYESAIFPWLNCYSEEERHNRKGKRVIIDALLPENHGAISSFDYAYPDDIKQRVLMHWETDFSHD", "Activity relative to WT": "++++"}, {"molecule": "L223Y-I283T-N285P-N287T-Q290E-S322T-N388M-K394R-E421F-C430A-L432F-L434W-S436N-dG462 (protein) MFLKSLREQINLLKRQGDLRIINRPVDSYLEAAAIIRRSTETKAPVPLMTNIKGYPGCSIVGGLAALSSNPEYPLSRVAMSLGLSTTASAQSIVQYLIDGLKKTPYLPVEIDSNSAPCKQNILRGEDASLAHFPIPQVHQHDGNRYVNTWGVFIVESPDGQWCNWSIQRVQYLNDRQMIALVFPSQHISDIWEEWVKIGKPMPYALVQGCEPIVPYIAGLPLYERNVNEAEYIGALYGKGIEVVKCETHDLRVPASSEVVIEGYFAITREGVEGPFGEFAGYTPPETSLEPILSITAISWQDDPIWPVVAEGKPVDEYHTCTGIGDAAAIQNVLLTANLPVSFVWVPLYSACHLMIVSINRHWRQTHPDLTSEQLTKKVGDVIHQTRMSIKLPRIVVLDDDVDPADTESLLWALATRIHPFRKRYFYESAIFPWLNCYSEEERHNRKGKRVIIDALLPENHGAISSFDYAYPDDIKQRVLMHWETDFSHD", "Activity relative to WT": "++++"}, {"molecule": "I283T-N285P-N287T-Q290E-S322T-N388M-K394R-C430A-L432F-L434W-S436N-i447aL-dG462 (protein) MFLKSLREQINLLKRQGDLRIINRPVDSYLEAAAIIRRSTETKAPVPLMTNIKGYPGCSIVGGLAALSSNPEYPLSRVAMSLGLSTTASAQSIVQYLIDGLKKTPYLPVEIDSNSAPCKQNILRGEDASLAHFPIPQVHQHDGNRYVNTWGVFIVESPDGQWCNWSIQRVQYLNDRQMIALVFPSQHISDIWEEWVKIGKPMPYALVQGCEPIVPYIAGLPLLERNVNEAEYIGALYGKGIEVVKCETHDLRVPASSEVVIEGYFAITREGVEGPFGEFAGYTPPETSLEPILSITAISWQDDPIWPVVAEGKPVDEYHTCTGIGDAAAIQNVLLTANLPVSFVWVPLYSACHLMIVSINRHWRQTHPDLTSEQLTKKVGDVIHQTRMSIKLPRIVVLDDDVDPADTESLLWALATRIHPERKRYFYESAIFPWLNCYSEEERHNRKGKRVIIDALLPENHGAISSFDYAYPDDIKQRVLMHWETDFSHD", "Activity relative to WT": "++++"}, {"molecule": "I283T-N285P-N287T-Q290E-S322T-N388M-K394R-C430A-L432F-L434W-S436N-i447aK-dG462 (protein) MFLKSLREQINLLKRQGDLRIINRPVDSYLEAAAIIRRSTETKAPVPLMTNIKGYPGCSIVGGLAALSSNPEYPLSRVAMSLGLSTTASAQSIVQYLIDGLKKTPYLPVEIDSNSAPCKQNILRGEDASLAHFPIPQVHQHDGNRYVNTWGVFIVESPDGQWCNWSIQRVQYLNDRQMIALVFPSQHISDIWEEWVKIGKPMPYALVQGCEPIVPYIAGLPLLERNVNEAEYIGALYGKGIEVVKCETHDLRVPASSEVVIEGYFAITREGVEGPFGEFAGYTPPETSLEPILSITAISWQDDPIWPVVAEGKPVDEYHTCTGIGDAAAIQNVLLTANLPVSFVWVPLYSACHLMIVSINRHWRQTHPDLTSEQLTKKVGDVIHQTRMSIKLPRIVVLDDDVDPADTESLLWALATRIHPERKRYFYESAIFPWLNCYSEEERHNRKGKRVIIDALLPENHGAISSFDYAYPDDIKQRVLMHWETDFSHD", "Activity relative to WT": "++++"}, {"molecule": "I283T-N285P-N287T-Q290E-S322T-N388M-K394R-C430A-L432F-L434W-S436N-i448aS-dG462 (protein) MFLKSLREQINLLKRQGDLRIINRPVDSYLEAAAIIRRSTETKAPVPLMTNIKGYPGCSIVGGLAALSSNPEYPLSRVAMSLGLSTTASAQSIVQYLIDGLKKTPYLPVEIDSNSAPCKQNILRGEDASLAHFPIPQVHQHDGNRYVNTWGVFIVESPDGQWCNWSIQRVQYLNDRQMIALVFPSQHISDIWEEWVKIGKPMPYALVQGCEPIVPYIAGLPLLERNVNEAEYIGALYGKGIEVVKCETHDLRVPASSEVVIEGYFAITREGVEGPFGEFAGYTPPETSLEPILSITAISWQDDPIWPVVAEGKPVDEYHTCTGIGDAAAIQNVLLTANLPVSFVWVPLYSACHLMIVSINRHWRQTHPDLTSEQLTKKVGDVIHQTRMSIKLPRIVVLDDDVDPADTESLLWALATRIHPERKRYFYESAIFPWLNCYSEEERHNRKGKRVIIDALLPENHGAISSFDYAYPDDIKQRVLMHWETDFSHD", "Activity relative to WT": "++++"}, {"molecule": "I283T-N285P-N287T-Q290E-S322T-N388M-K394R-C430A-i431aL-L432F-L434W-S436N-dG462 (protein) MFLKSLREQINLLKRQGDLRIINRPVDSYLEAAAIIRRSTETKAPVPLMTNIKGYPGCSIVGGLAALSSNPEYPLSRVAMSLGLSTTASAQSIVQYLIDGLKKTPYLPVEIDSNSAPCKQNILRGEDASLAHFPIPQVHQHDGNRYVNTWGVFIVESPDGQWCNWSIQRVQYLNDRQMIALVFPSQHISDIWEEWVKIGKPMPYALVQGCEPIVPYIAGLPLLERNVNEAEYIGALYGKGIEVVKCETHDLRVPASSEVVIEGYFAITREGVEGPFGEFAGYTPPETSLEPILSITAISWQDDPIWPVVAEGKPVDEYHTCTGIGDAAAIQNVLLTANLPVSFVWVPLYSACHLMIVSINRHWRQTHPDLTSEQLTKKVGDVIHQTRMSIKLPRIVVLDDDVDPADTESLLWALATRIHPERKRYFYESAIFPWLNCYSEEERHNRKGKRVIIDALLPENHGAISSFDYAYPDDIKQRVLMHWETDFSHD", "Activity relative to WT": "++++"}, {"molecule": "I283T-N285P-N287T-Q290E-S322T-N388M-K394R-C430A-i431aN-L432F-L434W-S436N-dG462 (protein) MFLKSLREQINLLKRQGDLRIINRPVDSYLEAAAIIRRSTETKAPVPLMTNIKGYPGCSIVGGLAALSSNPEYPLSRVAMSLGLSTTASAQSIVQYLIDGLKKTPYLPVEIDSNSAPCKQNILRGEDASLAHFPIPQVHQHDGNRYVNTWGVFIVESPDGQWCNWSIQRVQYLNDRQMIALVFPSQHISDIWEEWVKIGKPMPYALVQGCEPIVPYIAGLPLLERNVNEAEYIGALYGKGIEVVKCETHDLRVPASSEVVIEGYFAITREGVEGPFGEFAGYTPPETSLEPILSITAISWQDDPIWPVVAEGKPVDEYHTCTGIGDAAAIQNVLLTANLPVSFVWVPLYSACHLMIVSINRHWRQTHPDLTSEQLTKKVGDVIHQTRMSIKLPRIVVLDDDVDPADTESLLWALATRIHPERKRYFYESAIFPWLNCYSEEERHNRKGKRVIIDALLPENHGAISSFDYAYPDDIKQRVLMHWETDFSHD", "Activity relative to WT": "++++"}, {"molecule": "I283T-N285P-N287T-Q290E-S322T-N388M-K394R-C430A-L432F-L434W-S436N-i447aP-dG462 (protein) MFLKSLREQINLLKRQGDLRIINRPVDSYLEAAAIIRRSTETKAPVPLMTNIKGYPGCSIVGGLAALSSNPEYPLSRVAMSLGLSTTASAQSIVQYLIDGLKKTPYLPVEIDSNSAPCKQNILRGEDASLAHFPIPQVHQHDGNRYVNTWGVFIVESPDGQWCNWSIQRVQYLNDRQMIALVFPSQHISDIWEEWVKIGKPMPYALVQGCEPIVPYIAGLPLLERNVNEAEYIGALYGKGIEVVKCETHDLRVPASSEVVIEGYFAITREGVEGPFGEFAGYTPPETSLEPILSITAISWQDDPIWPVVAEGKPVDEYHTCTGIGDAAAIQNVLLTANLPVSFVWVPLYSACHLMIVSINRHWRQTHPDLTSEQLTKKVGDVIHQTRMSIKLPRIVVLDDDVDPADTESLLWALATRIHPERKRYFYESAIFPWLNCYSEEERHNRKGKRVIIDALLPENHGAISSFDYAYPDDIKQRVLMHWETDFSHD", "Activity relative to WT": "++++"}, {"molecule": "I283T-N285P-N287T-Q290E-S322T-N388M-K394R-C430A-i431aG-L432F-L434W-S436N-dG462 (protein) MFLKSLREQINLLKRQGDLRIINRPVDSYLEAAAIIRRSTETKAPVPLMTNIKGYPGCSIVGGLAALSSNPEYPLSRVAMSLGLSTTASAQSIVQYLIDGLKKTPYLPVEIDSNSAPCKQNILRGEDASLAHFPIPQVHQHDGNRYVNTWGVFIVESPDGQWCNWSIQRVQYLNDRQMIALVFPSQHISDIWEEWVKIGKPMPYALVQGCEPIVPYIAGLPLLERNVNEAEYIGALYGKGIEVVKCETHDLRVPASSEVVIEGYFAITREGVEGPFGEFAGYTPPETSLEPILSITAISWQDDPIWPVVAEGKPVDEYHTCTGIGDAAAIQNVLLTANLPVSFVWVPLYSACHLMIVSINRHWRQTHPDLTSEQLTKKVGDVIHQTRMSIKLPRIVVLDDDVDPADTESLLWALATRIHPERKRYFYESAIFPWLNCYSEEERHNRKGKRVIIDALLPENHGAISSFDYAYPDDIKQRVLMHWETDFSHD", "Activity relative to WT": "++++"}, {"molecule": "I283T-N285P-N287T-Q290E-S322T-N388M-K394R-C430A-L432F-L434W-S436N-i449aS-dG462 (protein) MFLKSLREQINLLKRQGDLRIINRPVDSYLEAAAIIRRSTETKAPVPLMTNIKGYPGCSIVGGLAALSSNPEYPLSRVAMSLGLSTTASAQSIVQYLIDGLKKTPYLPVEIDSNSAPCKQNILRGEDASLAHFPIPQVHQHDGNRYVNTWGVFIVESPDGQWCNWSIQRVQYLNDRQMIALVFPSQHISDIWEEWVKIGKPMPYALVQGCEPIVPYIAGLPLLERNVNEAEYIGALYGKGIEVVKCETHDLRVPASSEVVIEGYFAITREGVEGPFGEFAGYTPPETSLEPILSITAISWQDDPIWPVVAEGKPVDEYHTCTGIGDAAAIQNVLLTANLPVSFVWVPLYSACHLMIVSINRHWRQTHPDLTSEQLTKKVGDVIHQTRMSIKLPRIVVLDDDVDPADTESLLWALATRIHPERKRYFYESAIFPWLNCYSEEERHNRKGKRVIIDALLPENHGAISSFDYAYPDDIKQRVLMHWETDFSHD", "Activity relative to WT": "++++"}]}]}
